Assay [1] concerns the target T1, soluble Aβ / Aβ oligomers (oAβ) of human AD brain extracts (human, UniProt P05067 672-713).
T1 construct: Natural mixture; also called Aβ from human brain soaking extract; AD brain soaking extract oAβ
In words: 71A1 capture / 3D6 detector sandwich immunoassay, sample with or without 8M GnCl.

Assay [2] concerns the target T2, Aβ oligomers (oAβ) in human plasma (human, UniProt P05067 672-713).
T2 construct: Natural mixture; also called plasma oAβ; 71A1-positive oligomers in plasma
The description is as above.

Assay [3] deals with T3, Aβ / Aβ oligomers in human CSF (human, UniProt P05067 672-713).
T3 construct: Natural mixture; also called CSF Aβ; CSF Aβ oligomers
The assay is described as above.

For assay [4], the target named is T4, NETL-1 cyclized synthetic peptide immunogen (cyclized on resin through the cysteines C4 and C27; N-terminal cysteine used for conjugation to maleimide-activated plates).
T4 construct: Aβ residues 9-18, then Pro-Asn, then the same ten residues backwards; also called cyclized peptide; the immunogen
T4 peptide: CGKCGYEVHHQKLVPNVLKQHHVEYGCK
The assay is described as follows: indirect ELISA, peptide on maleimide-activated plate. The source says: (§1) The rationale behind the NETL-1 immunogen was that a more focused epitope formed by a cyclized peptide may restrict the response to a dimer structure derived from the chosen 10aa sequence with minimal or no induction of responses to the monomer 10aa peptide sequence found within full length Aβ40. Both responses were observed. We can account for this, in part, by the fact that there may always be a minimal epitope available for recognition that is cross-reactive with the monomer sequence no matter how small the peptide structure. Several monoclonal antibodies specific for both NETL-1 and NETL-2 were isolated. Two isolates, 7a and 1g stood out that bound to NETL-1 but not to NETL-2 or Aβ40. These isolates were sub-cloned for further characterization. Two isolated subclones, Mab 71A1 and 1G5 were chosen, grown in tissue culture and purified for confirmation of specificity and for future studies. Both 71A1 and 1G5 monoclonal antibodies bound to the cyclized peptide, NETL-1 and not to control wells, Aβ40 monomer peptide or control peptide NETL-2 (FIG. 2). FIG. 2 is a standard, indirect enzyme linked immunosorbent assay (ELISA) with the purified monoclonal antibodies assayed for binding to Aβ40, NETL 1 or NETL 2 peptides conjugated to malemide-activated (SH-reactive) micro titer plates. After one hour incubation, the wells were washed and then 100 ul of a secondary, Horseradish peroxidase (HRPO)-conjugated goat anti-mouse antibody was added and the plates, incubated for an additional hour before addition of TMB (3,3′,5,5′-Tetramethylbenzidine) substrate. Absorbance was measured in a spectrophotometer at 650 nm.
In general terms: ELISA stands for enzyme-linked immunosorbent assay.

Assay [5] addresses T5, full length Aβ40 with a C-terminal cysteine (conjugated to maleimide-activated plate through the added cysteine).
T5 construct: also called Aβ40 monomer peptide
Described as above.
Source text: as §1

The target of assay [6] is T6, S26C Aβ40 reduced by DTT to its monomeric form.
T6 construct: The dimer of m16 after reduction with DTT; also called reduced monomeric counterpart; monomeric Aβ
The assay is described as follows: 71A1 capture / 3D6 detector sandwich immunoassay, S26C Aβ40 dimer native or reduced by DTT.

Assay [7] has as its target T7, peptide mimetic 8.
T7 construct: As for peptide mimetic 1; also called peptide 8
T7 peptide: SYELHHKPLHAQ
In words: indirect ELISA, peptide at 10 µg/mL on maleimide-activated plate, absorbance at 650 nm. As to the method:
(§2) A standard, indirect enzyme linked immunosorbent assay (ELISA) with purified monoclonal antibody 71A1 was used to assay for binding to peptide mimetics 1-13 (sequences in FIG. 13) conjugated to maleimide-activated micro titer plates at 10 μg/mL in 0.1M Sodium bicarbonate buffer pH10 and blocked with PBS and 2% BSA. After one hour incubation, the wells were washed and then 100 ul of a secondary, Horseradish peroxidase (HRPO)-conjugated goat anti-mouse antibody was added and the plates, incubated for an additional hour before addition of TMB (3,3′,5,5′-Tetramethylbenzidine) substrate. Absorbance was measured in a spectrophotometer at 650 nm.

The target of assay [8] is T8, peptide mimetic 11.
T8 construct: As for peptide mimetic 1; also called peptide 11
T8 peptide: NMYEWNHKDPNM
The description is as above. As to the method:
as §2

The target in assay [9] is T9, peptide mimetic 13.
T9 construct: As for peptide mimetic 1; also called peptide 13
T9 peptide: QVYEVHHRGYTD
Described as above. The procedure:
as §2

For assay [10], the target named is T10, peptide mimetic 2.
T10 construct: As for peptide mimetic 1; also called peptide 2
T10 peptide: NLHQYPTAMQAR
In words: phage display panning (Ph.D.-12 library) on immobilized 71A1. The source says: (§3) A New England Biolabs (NEB) Ph.D.-12™ Phage Display Peptide Library Kit (instructions attached) was used to isolate amino acid residue peptide ligands (referred to herein as peptide mimetics) that bound to immobilized Mab 71A1. The New England Biolabs Ph.D.-12™ Phage Display Peptide Library Kit is a combinatorial library of random, 12 amino acid peptides (12-mers) fused to a minor coat protein (pIII) of the M13 bacteriophage. The peptide was expressed as a fusion with a coat protein that produces a display of the fused protein on the surface of the bacteriophage. The library consists of 2.7×109 electroporated sequences, amplified once to yield approximately 55 copies of each sequence in 10 μl of the supplied phage.
(§4) Immobilized 71A1 antibody was used to isolate the 12 amino acid peptides, shown in FIG. 13, that bound to the variable region. Thermo Scientific™ AminoLink Plus Coupling Resin was used to immobilize Mab 71A1. Negative control particles were made using monoclonal antibody 3C7 with specificity for an irrelevant peptide sequence. The Thermo Scientific™ AminoLink Plus Coupling Resin Protocol is provided that was used to produce the 71A1 particles panned with the NEB library. Briefly, 2 mL aminolink particle slurry was washed twice with 10 mL, 0.1 M sodium bicarbonate buffer pH 10 in a 15 mL conical tube by centrifugation for 10 minutes at 2000×g. 10 mgs of 71A1 antibody in this binding buffer was then added to the particles transferred to a 2 mL eppendorph tube and rotated at room temperature for 2 hours. The slurry was then added to a Millipore, Ultrafree-MC centrifugal filter unit and the resin washed 3× in 2 mL, 0.1M sodium phosphate, 0.15M NaCl, pH 7.2 binding buffer. Spun particles were then mixed with 2 mL pH 7.2 buffer and 40 μl of 50 mM Sodium Cyanoborohydride Solution and rotated for 4 hours. The aminoLink gel contains aldehyde functional groups that spontaneously react with primary amines on the antibody. The Schiff base bonds that form are then reduced to stable secondary amine bonds in the presence of the mild reducing agent, sodium cyanoborohydride. Particles were then washed twice with 2 mL 1M Tris HCL, pH 7.4, resuspended in 2 mL of this same buffer and 40 μl Sodium cyanoborohydride to block unbound sites on the particles, and rotated for 30 minutes. Particles washed 5 times with 1M sodium chloride were suspended in 1 mL PBS.

In assay [11] the target is T11, peptide mimetic 3.
T11 construct: As for peptide mimetic 1; also called peptide 3
T11 peptide: SPPTYEIHHFSP
Described as above.
Source text: as §3, §4

Assay [12] has as its target T12, peptide mimetic 6.
T12 construct: As for peptide mimetic 1; also called peptide 6
T12 peptide: TPNNTTSHRYPD
Described as above.
Source text: as §3, §4

The target of assay [13] is T13, peptide mimetic 10.
T13 construct: As for peptide mimetic 1; also called peptide 10
T13 peptide: EMAPVASANLPP
The description is as above.
Source text: as §3, §4

The target in assay [14] is T14, peptide mimetic 5.
T14 construct: As for peptide mimetic 1; also called peptide 5
T14 peptide: DSVVPSYEVHHK
The assay is described as above.
Source text: as §3, §4

Assay [15] concerns the target T15, peptide mimetic 1.
T15 construct: also called peptide 1
T15 peptide: QIYEVHHRGYTD
The assay is described as above.
Source text: as §3, §4

Assay [16] deals with T16, peptide mimetic 9.
T16 construct: As for peptide mimetic 1; also called peptide 9
T16 peptide: GPHTYPPQIALT
The assay is described as above.
Source text: as §3, §4

Assay [17] addresses T17, peptide mimetic 12.
T17 construct: As for peptide mimetic 1; also called peptide 12
T17 peptide: SPSHMYPSSLIQ
The assay is described as above.
Source text: as §3, §4

For assay [18], the target named is T18, peptide mimetic 7.
T18 construct: As for peptide mimetic 1; also called peptide 7
T18 peptide: GWYEIHHPSQRA
The description is as above.
Source text: as §3, §4

Assay [19] deals with T19, peptide mimetic 4.
T19 construct: As for peptide mimetic 1; also called peptide 4
T19 peptide: YQIHHNTQKRGG
The assay is described as above.
Source text: as §3, §4

Positions count from the first letter of the chain named.

T3 sequence (P05067 672-713): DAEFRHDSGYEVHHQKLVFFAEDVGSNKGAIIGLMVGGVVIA
T1 sequence (P05067 672-713): as above
T2 sequence (P05067 672-713): as above

B1: monoclonal antibody 71A1 (antibody, V domains shown)
VH: EVQLQESGAELVRPGVSVKLSCKTSDYTFTSYWLHWFKQRPEQGLERIGEIDPSNGDADYSEKFKSKATLTVDKSSTTAYMQLASLTSEDSAVYYCAREAYGHYFDYWGQGTTLTVSS
VL: DVVMTQTPLSLPVSLGDQASISCRSSQSLEHSNGNTYLHWYLQKPGQSPKLLIYKLSNRFSGVPDRFSGSGSGTDFTLKISRVEAEDLGVYFCSQSTHVPYTFGGGTKLEIK
notes: Biotinylated when used as capture on streptavidin beads, resin or plates; also called Mab 71A1; mab 71 A1
Regarding B1, the results for the “decrease of 71A1/3D6 signal after 8M GnCl denaturation” value in assay [1], in assay [2] and in assay [3] were more than 70%, more than 84% and more than 99%, respectively. In addition, the binding result in assay [4] was “binds”; in assay [5] it was “no binding”; in [7] it was “binds”; in [8] it was “binds”; in [9], “binds”; in [10], “binds”. Besides, the binding result in [11], in [12], in assay [13], in [14], in assay [15] and in assay [16] was “binds” throughout. In addition, the binding result in assay [17], in assay [18] and in assay [19] was “binds” in each case. The “fold less binding than to higher order Aβ (non-reduced S26C dimer)” value in [6] was more than 100 fold.

B2: monoclonal antibody 1G5 (antibody, V domains shown)
VH: B1 VH with E1Q, E6Q, S7P
VL: B1 VL
notes: Biotinylated when used as capture; also called Mab 1G5; isolate 1g
Turning to B2, the binding result in assay [4] was “binds”; in [5] it was “no binding”.

Source of the values: patent US20240358805A1 (BRIGHAM AND WOMEN S HOSPITAL, published 2024).
